In the domain aggregation screens of Martell et al. (2025):

Assay: soluble fraction after stress (log2 fold change); higher = more stays soluble; pooled small domains, quantitative proteomics
Details: stress: 50 degC
Procedure, shortened: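 Each library was heated to 50°C as a stress step. The libraries, made up of small protein domains, were pooled and analysed at high throughput by quantitative proteomics. The reported value is the base-two logarithm of the fold change in each protein's soluble amount after stress, taken as a measure of aggregation propensity. The higher the value, the more protein stays in solution.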
In the case of “HMKSKPRVPFGSLVEMGILKPGSILFDPKGKIKTKVMVDGSIKYKETEGSIHKVAAQIMGTESYNGWTYW”, the “soluble fraction (log2)” value is reported as 0.355. For “HMSNVDYSQFKKDTVVEHTKFGRGIIIQTSGDGEDKIAAIAFKGLGVKRFSLAIAAASLKIIGKNDE”, the “soluble fraction (log2)” value was -0.0817. In the case of “HMATGGKIYIGMNDNGKVVGVSDADKLLEDIPNKVRDVLGIIVDVNLLEENGLKYIEIDVPPYSN”, the “soluble fraction (log2)” value is reported as -0.585. With “HMAPIEVPYNVFRQQVVEGNVESVATRADTVQGYFETPVTLPARPDAAAAEPVTVERFSTTLPSF” the “soluble fraction (log2)” value was 0.142. For “HMEYSYKLIDLLVDRFSEEGVDPEEAREYINLFHRFSQGLDPDKRDITKYSWDELYRTVNDKKDS”, the “soluble fraction (log2)” value was 0.107. With “HMTPVKAPLPGVVTKINVSVGQQVKKGENVLVLEAMKMENNIAAEADGTVSGIAVKAGDSVLEGAVLLTI” the “soluble fraction (log2)” value was 0.184. In the case of “HMTYMWTTDGVNLRSEPNTDSAVVTVLGVGTQVRMIGEEDGWVKVSFNDQEGYIRADFLTTE”, the “soluble fraction (log2)” value is reported as -0.0926. With “HMKNTVGEYRKLKSTTILYSNSDLTGTKYTYLPNTTVKILKNISSTVDYVYIKATNRYAYINIYAYT” the “soluble fraction (log2)” value was -2.75. In the case of “HMSTVEKDSELGGNFRIASYPTGKGQISEAIRSMIVRAKQVGVNIRLNTEATEEPLRALAPNAVILATG”, the “soluble fraction (log2)” value is reported as 0.0325. In the case of “HMFAAIFADDSGFTTRSKRFGPYVEEIAADWQAVKQLSDEDAKQALVPLVKKIELALSTLQQFVSSV”, the “soluble fraction (log2)” value is reported as -0.244. For “HMKEVDSESAFAERGISEVWIPALQKMGILTLEALDAANPNKVFNDLGGMRKKLKIDAAMPTKDEVTAWIQ”, the “soluble fraction (log2)” value was 0.0238. In the case of “HMSFISRMVVAVEDIALSTRPNSTPSGDKYVSKGTVLLMEKRENDWVEVRQPSSPLSGWAPKTSLLSV”, the “soluble fraction (log2)” value is reported as -0.546. For “HMITTWAGKATTDVYGRVDANPKADAVLVIKTGWTVQVVGSKTAPDGGTWYKLIYNGKTMYANSKFIVK”, the “soluble fraction (log2)” value was -1.16. With “HMTMEQAEFLSRQFNLLSQRLNDPSIEWQDIADLRSEYTGEDEHRDTIRKGAKLFYEYLEAGWIKN” the “soluble fraction (log2)” value was -0.581. In the case of “HMSHGFFTLQSDDLNLLRTVLEGHSSIGDIKIEGIQLVAYLKEPLNGAELNKILFEKGINLSYLVHRK”, the “soluble fraction (log2)” value is reported as -2.15. For “HMFQPEQISKLNELETLVLDFIIKSPDKVQKATIRSLATQLHVSTTTIVRMSTKLGFNGWSELKFFLKNQS”, the “soluble fraction (log2)” value was -2.15. For “HMGETYTIPDVRGYTLEDAMELPEIKENGFTIIEGRQIVDADVPVGQIISQTPEAESIAKSNVKEITVNIS”, the “soluble fraction (log2)” value was 0.0323. For “HMQVSDAAQLAEVVKTVLAENPAAVGDYRKGKKAAIGFLLGQVMRHMRGTANPAVARQLLEQALEDE”, the “soluble fraction (log2)” value was 0.0337. With “HMEQVSDPALLERYAKEVVAASPKAVADYQAGNAKAFQALVGQMMKRTKGKGDPALIREILQKL” the “soluble fraction (log2)” value was 0.0957. With “HMSQPALSYAFAKAQGVIVTALGDVAEVARRKGSQPQALAEVRRIAGRPLALREVDDAAFDRLLQDHYARS” the “soluble fraction (log2)” value was -0.243. In the case of “HMKELLTKQQREEILETVKTKTPKDFGYTAEHWTTGFLGKWIEEHYEVEYKSKTSLYLVFKKASFTYHKPG”, the “soluble fraction (log2)” value is reported as 0.228. For “HMADPRFHSEIMLSKIESLLSGKADSDVSNYSIQGRSLTKMSLQELMDARESYDGLVKSEKAKLDAKY”, the “soluble fraction (log2)” value was 0.0495. For “HMNEKFNVYPIPVYNNLNITGLSKPVTYLISSIDGKTIKNGVFQESIDVSDLKSGLYFLQVETKDPVKFIK”, the “soluble fraction (log2)” value was -0.658. With “HMGKLQFREKLNGILELGKEKHRVLTMEDVEKYFEEDALSEEQMELVYDYLLSQKIAVTGYVKK” the “soluble fraction (log2)” value was -0.191. With “HMSYLELENLAEDIKATYDNLSTDLREVFRLSDIEGLSYEEISNKMNIPIGTVRSRLHRARETLLRIFNN” the “soluble fraction (log2)” value was -0.933. In the case of “HMEYFDDEELDRYKGRTSDSFTDDEAEEFREVMMTMHPEEVKAWNRSLILRDVAMPDQIKDDYIMLAG”, the “soluble fraction (log2)” value is reported as -0.0408. With “HMDKEVLYVTVNDKKVKLDGKNHIFIDIFNYIDFDIKKPNGSIVLKLNGKNAGYMDEIKDGDKIEIYWDK” the “soluble fraction (log2)” value was 0.0969. For “HMVDYSMEDSVWNNKKEHVNEWFDANPEHEGRRVIVDGLFAIGDAQPDLRKRHWSSISVVFADLDNSPIG”, the “soluble fraction (log2)” value was -0.356. With “HMEDISQHAVKKLVQEMVMAEDPRDPLSDQQIAENLSRLGLKVARRTVAKYRAMLGIQPSNRRRK” the “soluble fraction (log2)” value was -0.0553. In the case of “HMNQNIYVPKLEGLQIEEASSILKSKGLNIEITDSIFRKDAVPGAIIEQTPKPNSRVKTGRNIYVSIYSK”, the “soluble fraction (log2)” value is reported as -0.0536. With “HMIKLSEAEWKVMKLLWEESPKTMMQITNLLKETTGWTKHTVMTFLKRMEEKKAIHYEEGGRAKLYYP” the “soluble fraction (log2)” value was -0.589. With “HMAAKADAVKKAIAAIGKVDASEDSKAKVEAARKAYAALTEDQKKLVEASQLKLLTEAEAAYQQAVEESKK” the “soluble fraction (log2)” value was 0.0525. For “HMDTLTRAMVWTIIARAEGVDTTGGATWYAKAQEWVTAKGISDGENPNAAITRQELVTMLYRLAGEPAV”, the “soluble fraction (log2)” value was -2.78. For “HMKNLHLVPNVVGMSAKEAKNTLKSFNIKYKPIYGSSNKYDENYIFNQNPRKGKTIKEQEVVTIYISRGAD”, the “soluble fraction (log2)” value was -1.07. With “HMGVAAPMPGTITDVRVKVGDRVQPRTVVMMLEAMKMENEIFAGRAGVVSQVAVEKGASVNTGDLLISIDP” the “soluble fraction (log2)” value was 0.129. In the case of “HMSSTSISFNDFQKYWLSNDIKSFQLREDKMTVQGSLKNGTAYETVVPSERLFQFIGQHPKD”, the “soluble fraction (log2)” value is reported as 0.368. With “HMLSGNLTADAHVHRGLQALSDGRNEDALVDFTKATEVQADFAEAWNKRATVNYLLGRYDAAVLDIQKTLE” the “soluble fraction (log2)” value was 0.19. With “HMRQPAAVEYSTFLDWVHASQVERVVFEGDTIRGVRVTGEGFVTYSPETDNTALIGELKKSRVQISATAP” the “soluble fraction (log2)” value was -0.153.
